Experimental data from patent US20110300138A1 (published 2011).
Each block holds one substance with its values, some of them ahead of it.

How the values were obtained:
Experiment in all cases: cell-based or functional assay
[1] = molecular target: human TSH receptor (full length, wild type) expressed in CHO cells (human) (UniProt P16473)
[2] = molecular target: human TSH receptor (full length, wild type) expressed on CHO cells (human) (UniProt P16473)
[3] = molecular target: wild type TSHR expressed in CHO cells (human) (UniProt P16473)
[4] = molecular target: human TSHR with Glu251 mutated to Ala expressed in CHO cells (human) (UniProt P16473)
[5] = molecular target: wild type TSHR expressed in CHO cells (human) (UniProt P16473); remark: listed apart in the source
[6] = molecular target: TSHR with Lys250 mutated to Ala (expressed in CHO cells) (human) (UniProt P16473)

Cyclic AMP concentration at 0.1 units/L NIBSC 90/672 [1]: 5 pmol/mL
Cyclic AMP concentration at 0.3 units/L NIBSC 90/672 [1]: 12.5 pmol/mL
Cyclic AMP concentration at 1 unit/L NIBSC 90/672 [1]: 27.4 pmol/mL
Substance: NIBSC reference preparation 90/672 (Thyroid Stimulating Autoantibody reference preparation)

Cyclic AMP concentration in hypotonic medium; 100 ng/mL rhTSH alone [2]: 37.8 pmol/mL
Cyclic AMP concentration in isotonic medium; 100 ng/mL rhTSH alone [2]: 29.9 pmol/mL
Substance: recombinant human TSH (from UniProt P01215 25-116; P01222 21-138) (ligand)

Cyclic AMP concentration in hypotonic medium; 100 ng/mL hTSH alone [2]: 56.8 pmol/mL
Cyclic AMP concentration in isotonic medium; 100 ng/mL hTSH alone [2]: 42.3 pmol/mL
Substance: native human TSH (from UniProt P01215 25-116; P01222 21-132) (ligand)

% inhibition of TSH stimulation; 5B3 10 µg/mL [3]: 5%
% inhibition of TSH stimulation; 5B3 100 µg/mL [3]: 11%
Cyclic AMP produced; 5B3 10 µg/mL + TSH 3 ng/mL [3]: 92.9 pmol/mL
Cyclic AMP produced; 5B3 100 µg/mL + TSH 3 ng/mL [3]: 86.3 pmol/mL
% inhibition of TSH stimulation; 5B3 10 µg/mL [4]: 10%
% inhibition of TSH stimulation; 5B3 100 µg/mL [4]: 0%
Cyclic AMP produced; 5B3 10 µg/mL + TSH 3 ng/mL [4]: 68.7 pmol/mL
Cyclic AMP produced; 5B3 100 µg/mL + TSH 3 ng/mL [4]: 76.7 pmol/mL
Mutated/wild type (%) of cyclic AMP produced; 5B3 10 µg/mL + TSH 3 ng/mL [4]: 74%
Mutated/wild type (%) of cyclic AMP produced; 5B3 100 µg/mL + TSH 3 ng/mL [4]: 89%
% inhibition of TSH stimulation; 5B3 10 µg/mL; Experiment 1 [5]: 0.1%
% inhibition of TSH stimulation; 5B3 10 µg/mL; Experiment 2 [5]: 0%
% inhibition of TSH stimulation; 5B3 100 µg/mL; Experiment 1 [5]: 0%
% inhibition of TSH stimulation; 5B3 100 µg/mL; Experiment 2 [5]: 0%
Cyclic AMP produced; 5B3 10 µg/mL + TSH 3 ng/mL; Experiment 1 [5]: 77.8 pmol/mL
Cyclic AMP produced; 5B3 10 µg/mL + TSH 3 ng/mL; Experiment 2 [5]: 90.6 pmol/mL
Cyclic AMP produced; 5B3 100 µg/mL + TSH 3 ng/mL; Experiment 1 [5]: 79.9 pmol/mL
Cyclic AMP produced; 5B3 100 µg/mL + TSH 3 ng/mL; Experiment 2 [5]: 87.5 pmol/mL
% inhibition of TSH stimulation; 5B3 10 µg/mL; Experiment 1 [6]: 0%
% inhibition of TSH stimulation; 5B3 10 µg/mL; Experiment 2 [6]: 14%
% inhibition of TSH stimulation; 5B3 100 µg/mL; Experiment 1 [6]: 0%
% inhibition of TSH stimulation; 5B3 100 µg/mL; Experiment 2 [6]: 1%
Cyclic AMP produced; 5B3 10 µg/mL + TSH 3 ng/mL; Experiment 1 [6]: 67.7 pmol/mL
Cyclic AMP produced; 5B3 10 µg/mL + TSH 3 ng/mL; Experiment 2 [6]: 47.1 pmol/mL
Cyclic AMP produced; 5B3 100 µg/mL + TSH 3 ng/mL; Experiment 1 [6]: 66.1 pmol/mL
Cyclic AMP produced; 5B3 100 µg/mL + TSH 3 ng/mL; Experiment 2 [6]: 54.7 pmol/mL
Mutated/wild type (%) of cyclic AMP produced; 5B3 10 µg/mL + TSH 3 ng/mL; Experiment 1 [6]: 87%
Mutated/wild type (%) of cyclic AMP produced; 5B3 10 µg/mL + TSH 3 ng/mL; Experiment 2 [6]: 52%
Mutated/wild type (%) of cyclic AMP produced; 5B3 100 µg/mL + TSH 3 ng/mL; Experiment 1 [6]: 83%
Mutated/wild type (%) of cyclic AMP produced; 5B3 100 µg/mL + TSH 3 ng/mL; Experiment 2 [6]: 62%
Substance: 5B3 IgG (human monoclonal antibody to GAD, negative control for K1-70)
